# Source: the nanobody polyreactivity screen of Harvey et al. (2022)
# Assay: yeast display, Sf9 membrane polyspecificity reagent, FACS + sequencing; frameworks hold sequencing errors
# How it was run: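 Synthetic nanobody libraries on Saccharomyces cerevisiae BJ5465 were galactose-induced for 36–48 hours, stained 1 hour at 4 °C with 10% biotinylated, detergent-solubilized Sf9 membrane reagent and enriched on streptavidin microbeads. FACS then separated cells into low and high (top ~1%) gates by anti-HA (expression) and streptavidin (reagent binding) fluorescence. Genes were colony-PCR amplified, MiSeq 2 × 250 sequenced and CDR-length filtered. A clone's polyreactivity label is that of its gate of origin.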
row,Sequence,polyreactivity (PSR sort gate)
1,QVQLVESGGGLVQAGGSLRLSCAASGYFDRNAMGWDRQAPGKERELVAAITVGGSTNYADSVKGRFTISRDNAKNSVYVQMNSLKPEDTAVYYCAADRGHTILHGGYWGQGTQVTVSS,low polyreactivity
2,QVQLVESGGGLVQAGGSLRLSCAASGSIFYLNAMGWYRQAPGKERELVAAITNGGSTYADSVKGRFTISRDNAKNTVYLQMNSLKPEDTAGYYCATRSWELGDYWGQGTQVTVSS,low polyreactivity
3,QVQLVESGGGLVQAGGSLRLSCAASGFTLSYYAMGWYRQAPGKERELVASISAIGGITYYADSVKGRFTISRDNAKNTVYLQMNSLKPEDTAVYYCARQGRRYRRFDSWGQGTKVTVSS,high polyreactivity
4,QGQLVESGGGLVQAGGSLRLSCAASGIIFILYTMGWYRQAPGKEREFVATISSGGGSTFYADSVKGRFTISRDNAKNTVYLQMNSLKPEDTAVYYCAAEQLYYCERYYIWGYYYWGQGTQVTVSS,low polyreactivity
5,QVQLVESGGGLVQAGGSLSLSCAASGRIFPPYAMGWYRPAPGKERELVAAISVSGSNTYYADSVKGRFTISRYNAKNTVYLQMNSLKPEDTAVYYCNAKRYSPVYYWYDYCGQGTQVTVSS,high polyreactivity
6,QVQLVESGGGLVQAGGSLRLSCADSGFTYAYYVMGWYRQAPGKERELVAAISISGGRTYYADSVKGRFTISRDNAKNTVYLQMNSLKPEDTAVYYCAADRRTDGHDYWGQGTQVTVSS,high polyreactivity
7,QVQLVESGGGLVQAGGSLRLSCAASGSTSPNAMGWYRQAPGKERELVAAIWSGGTYYADSVKGRFTISRDNAKNTVYLQLNSLKPEDTAVYYCAVTGVYRGFRYGYLGQGTQVTVSS,low polyreactivity
8,QVQLVESGGGLVQAGGSLRLSCAASGITFSGYDMGWYRQAPGKERELVADITISTGSTYYADSVKGRFTISRDNAKNTVYLQMNSLKPEDTAVYYCAADWQQDRTVVLPSWGHAYDSWGQGTQVTVSS,low polyreactivity
9,HVQLVESGGGLVQAGGSLRLSCAASGRIFGYNAMGWYRQAPGKEREFVATITYNDGSTYYADSVKGRFTMSRDNAKNTVYLQMNSLKPEDTAVYYCAADLIWTVYGWKYDYWGQGTHVTVSS,low polyreactivity
10,QVQLVESGGGLVQAGGSLRLSCAASGNIFNEYAMGWYRQAPGKERELVAAITWSAGSTYYADSVKGRFTISRDNAKNTVYLQMNSLKPEDTAVYYCNAEYTWHRGYDYWGQGTQVTVSS,low polyreactivity
11,QVQLVESGGGLVQAGGSLRLSCAASGSILQTYAMGWYRQAPGKERELVAAITWSVVSTYYADSVKGRFTISRDNAKNTVYLQMNSLKPEDTAVYYCNARSFGDPGNAYDYWGQGTQVTVSS,high polyreactivity
12,QVQLVESGGGLVQAGGSLRLSCAASGLIFNLYAMGWYRQAPGKEREFVATITGIGGSTYYADSVKGRFTISRDNAKNTVYLQMNSLKPEDTAVYYCAADAWFLPYNDWGQGTQVTVSS,low polyreactivity
13,QVQLVESGGGLVQAGGSLRLSCAASGIIFYYYAMGWYRPAPGKERELVAAITSSGVRTYYADSVKGRFTLSRDTAKNTVYLQMNSLKPEDTAVYYCAASVSWPRVSQRARYGYYYWGQGTQVTVSS,high polyreactivity
14,QVQHEESGGGLVQAGGSLRLSCASSGLIFKFSAMGWYRQAPGKERELVAAITSRGGSTYYADSVKGRFTISRDNAKNTVYFQMNSLKPEDTEVYYCAADVRTQHYNAQYDYWGQGTQVTVSA,high polyreactivity
15,QVQLVESGGGLVQAGGSLRLSCAASGRTLHDYTMGWYRQSPGKERELVAGITSGGRTNYADSVKGRFTISRDNAKNTVYLQMNSLKPEDTADYYCAAAWTWWRLYAVDYWGQGTQVTVSS,high polyreactivity
16,QVQLVESGGGLVQAGGSLRLSCAASGRTFDLYAMGWYRQAPGKERELVARITNIDDSTYYADSVKGRFTISRDNAKNTVYLQMNSLKPEDTAVYYCNAVVTKYAKSRFLYYYWGQGTQVTVSS,high polyreactivity
17,QVQLVESGGGLVQAGGSLRLSCAASGRIFTNYAMGWYREAPGKERELVAAINYSGGNTYYADSVKGRFTISRDNAKNTVYLQMNSLIPEDTAVYYCNAPILPRYRRYDYWGQGTQVTVSS,low polyreactivity
18,QVQLVESGGGLVQAGGSLRLSCAASGIIFASNAMGWYRQAPGKERELVAAISGSGGRTYYADSVKGRFTISRDTAKNTVYLQMNSLKPEDTAVYYCAAARANNYDYWGQGTQVTVSS,high polyreactivity
19,QVQLQESVGGLVQAGRSLRLSCAASGYISHADEMGWYRQAPGKEHELVASISNGGSTNYADSVKGRFTISRDNANNTVYLQMNSLKSVDTAVYFCAAWTGQVDIHYYWGQGTQVTVSS,low polyreactivity
20,QVQLVESGGGLVQAGGSLRLSCAAYGFTCPLNAMGWYRQAPGKERELVAAISGSSGSTYYADSVKGRFTISRDNAKNTVYLQMNSLKPEDTAVYYCAKKYAWRYYYWGQGTQVTVSS,high polyreactivity
21,QVQLVESGGGLVQAGVSLRLSCAASGSTSSRNAMGRYRQAPGKEWELVAAITSGTRTYYADSVKGRFTISRDNAKNTVYLQMNSLKPEDTAVYYCARGRVSRYTNTDYDYWGQGTQVTVSS,high polyreactivity
22,QVQLVESGGGLVQAGGSLRLSCAASGRTFRDYVMGWYRQAPGKERELVAAISTRGASTYYADSVKGRFTISRDYAKNTVYLQMNSLKPEDTAVYYCAARSTRRGNEYDYWGQGTQVTVSS,high polyreactivity

row,Sequence,polyreactivity (PSR sort gate)
1,QVQLVESGGGIVQAGASLRLSCSASGFTQYPYTMGWNRHAPGKESELVAAITSSGATTYYADSVKGRFTISRDNAKNTVYLQMNRLKTEVTAVYYCAAGRAAAFGYLGQGTQVTVSS,high polyreactivity
2,QVQLVESGGGLVQAGGSLRLSCAASGRTFSYYAMGWYRQAPGKERELVAAIYRAGRTNYADSVKGRFTISRDNAKNNVYLQMHSLKPEDTAVYYCAADLAYGRPFVSYRTRACGQGTQVTVSS,high polyreactivity
3,QVQLVESGGGLVQAGGRLRLSCAASGFTFGDNAMGWYRQAPGKERELVAAITSSGSTNYADSVKGRFTISRDNAKNTVYLQMNSLKPEDTAVYYCNAEDSVDAPVYKDLGSEYDSWGQGTQVTVSS,low polyreactivity
4,QVQLVESGGGLVQAGGSLRLSCAASGSIVDTNAMGWYRQAPGKERELVAAITSTDSTNYADSVKGRFTISRDNAKNTVYLQMNSLKPEDTAVYYCNAALSQLRRGGLAMDYWGQGTQVTVSS,low polyreactivity
5,QVQLVESGGGLVQAGGSLRLSCAASGFIIGRNVMGWYRQAPGKERELVAAISYSGGSTYYADSVKGRFTISRDNAKNTVYLQMNSLKPEDTAVYYCNAEAWVSQDWCQWVAYDYWGQGTQVTVSS,high polyreactivity
6,QYQLVESGGCLVQAGGTLRLRCAATGFTFKSYAMGWYRHAHGKAWELVAAISNRGGSTYYADSVKGRFTISRDNAKNSVYLQINSLKPEDNAVYYCATQYYVRPFDYWGQGTQVTVSS,high polyreactivity
7,QVQLVESGGGLVHAGCSLRLSCAASGFFFDYNAMGWYRQAPGKERELVAAISISGGGTYYADSVKGRFTISRDNAKNTVYLQKNSLKPEDTAVYYCAAAGIGGGGWGQGTQVTVSS,low polyreactivity
8,QVQLVESGGGLVQAGGSLRLSCAASGITFTSYAMGWYRQAPGKERELVAAISWSGDRTYYADSVKGRFTISRDNAKNTVYLQMNSLKPEDTAVYYCAADQFTGSVWAYYYWGQGTQVTVSS,high polyreactivity
9,QVQLVESGGGLVQAGGSLRLSCAASGSTFSGKAMGWYRQAPGKERELVAAITSSGGSTYYADSVKGRFTISRDNAKNTVYLQMNSLKPEDTAVYYCAAKSRRTRRSYYWGQGTQVTVSS,high polyreactivity
10,QVQLVESGGGLVQAGGSLRLSCAASGRTFVFYAMGWYRQAPGKERELVAAITSSGGRTYYADSVKGRFTISRDNAKNTVYLQMNSLKPEDTAFYYCAAPYYPYKYDYWGQGTQVTVSS,low polyreactivity
11,QVQLVESGGGLVQAGGSLRLSCAASGSISFLYTMGWYRQAPGKERELVAAITGSTASTYYADSVKGRFTISSDYAKNTVYLQMKSLKPEDTAVYYCAAYWYAVGYWVSRDYWGQGTQVTVSS,low polyreactivity
12,QVQLVESGGGLVQAGGSLRLSCAASGSIFYNAMGWYRQAPGKERELVASISWSGGTSTYYADSVKGRFTISRDNAKNTVYLQMNSLKPEDTAVYYCAKASRYSSYWMYYWGQGTQVTVSS,high polyreactivity
13,QVQLVESGGGLVQAGGSLRLSCAASGRIFYTYAMGWYRQAPGKERELVATISRSSSTYYADSVKGRFTISRDNAKNTVYLQMNSLKPEDTAVYYCATRSASQLLDYWGQGTQVTVSS,low polyreactivity
14,QVQLQESGGGLVQAGGSLRLSCAASGTISYGSVMGWYRQAPGKERELDAGIGYGSTTNYADSVKGRFTISRDNAKNTVYLQMNSLKPDDTAVYYCARDLYYVYSFAPYRYEYWGHGTQVTVSS,low polyreactivity
15,QVQLVESGGGLVQAGGSLRLSCAASGRIFFRYAMGWYRQAPGKERELVASIRFRGGSTYYADSVKGRFTISRDNAKNTVYLQLNSLKPVDTAVYYCATPGSFTGTQRTGDYWGQGTQVTVSS,high polyreactivity
16,QVQLVESGGGLVQAGGSLRLSCAASGRIFSYNTLMRWYRQAPGKERELVAAITFSSASTYYADSVKGRFTISRDNAKNTVYLQMNSLKPEDTAVYYCAAAIRSQSSKYYYWGQGTQVTVSS,low polyreactivity
17,QVQLVESGGRLVQARGSLRLSCAASGRIFYDYAMGCYRQAPGKESELVAAISGSGGSTYYADSVKGRFTISRDNAKNTVYLQMNSLKPEDTAVYYCNRYTTRYYPGGDYWGQGTQVTVSS,high polyreactivity
18,QVQLVESGGGLVQAGGSLRLSCAASGRTFLPYAMGWYRQAPGKERELVADINWGGGSTYYADSVKGRFTISRDNATNTVYLQMNSLKQEDTALYYCATDDGYQYWYYQWYYWGQGTQVTVSS,low polyreactivity
19,QVQLVESGGGLVQAGGSLRLSCAASGSTFYFNAMGWYRQAPGKERELVADINYSGTSTYYADSVKGRFTISRDNAKNTVYLQMTSLKPEDTAVYYCAKSLPSSNTSTSYDYWGQGTQVTVSS,low polyreactivity
20,QVQLVESGGGLVQAGGSRRLSCAPSGSIIGEYAMGWYRQAAGKERELVAAINVNGGRTYYADSVKGRFTISRDNAKYTVYLQMNRLKPEETAVYYCNAGYYLTLDYWGQGTQVTVSS,high polyreactivity
21,QVQLVESGGGLVQAGGSHRLSCAASGSTFLRYAMGWYRQAPGKERELVAAITASGGSTYYADSVKGRFTISRDNAKNTVYLQMNCLKAEDTAVYYCAADGRFIGKNSHDLWIYGYYYWGQGTQVTVSS,low polyreactivity
